Experimental data from publication doi:10.1101/2024.07.16.603698 (bioRxiv, 2024).

Molecular target: full-length GST-tagged SARS-CoV-2 Nucleocapsid (N) protein (SARS-CoV-2, UniProt P0DTC9 1-419)
Test: pull-down

B1: human UPF2 truncated construct lacking 120 and 45 residues at the N- and C-termini (domain or fragment)
chain: MKEKEESIQLHQEAWERHHLRKELRSKNQNAPDSRPEENFFSRLDSSLKKNTAFVKKLKTITEQQRDSLSHDFNGLNLSKYIAEAVASIVEAKLKISDVNCAVHLCSLFHQRYADFAPSLLQVWKKHFEARKEEKTPNITKLRTDLRFIAELTIVGIFTDKEGLSLIYEQLKNIINADRESHTHVSVVISFCRHCGDDIAGLVPRKVKSAAEKFNLSFPPSEIISPEKQQPFQNLLKEYFTSLTKHLKRDHRELQNTERQNRRILHSKGELSEDRHKQYEEFAMSYQKLLANSQSLADLLDENMPDLPQDKPTPEEHGPGIDIFTPGKPGEYDLEGGIWEDEDARNFYENLIDLKAFVPAILFKDNEKSCQNKESNKDDTKEAKESKENKEVSSPDDLELELENLEINDDTLELEGGDEAEDLTKKLLDEQEQEDEEASTGSHLKLIVDAFLQQLPNCVNRDLIDKAAMDFCMNMNTKANRKKLVRALFIVPRQRLDLLPFYARLVATLHPCMSDVAEDLCSMLRGDFRFHVRKKDQINIETKNKTVRFIGELTKFKMFTKNDTLHCLKMLLSDFSHHHIEMACTLLETCGRFLFRSPESHLRTSVLLEQMMRKKQAMHLDARYVTMVENAYYYCNPPPAEKTVKKKRPPLQEYVRKLLYKDLSKVTTEKVLRQMRKLPWQDQEVKDYVICCMINIWNVKYNSIHCVANLLAGLVLYQEDVGIHVVDGVLEDIRLGMEVNQPKFNQRRISSAKFLGELYNYRMVESAVIFRTLYSFTSFGVNPDGSPSSLDPPEHLFRIRLVCTILDTCGQYFDRGSSKRKLDCFLVYFQRYVWWKKSLEVWTKDHPFPIDIDYMISDTLELLRPKIKLCNSLEESIRQVQDLEREFLIKLGLVNDKDSKDSMTEGENLEEDEEEEEGGAETEEQSGNESEVNEPEEEEGSDNDDDEGEEEEEENTDYLTDSNKENETDEENTEVMIKGGGLKHVPCVEDEDFIQALDKMMLENLQQRSGESVKVHQLDVAIPLHLKSQLRKGPPLGGGEGEAESADTMPFVMLTRKGNKQQFKILNVPMSSQLAANHWNQQQAEQEERMRMKKLTLDINERQEQED
B1: binds.
